Measurements as given in patent publication US20240158497A1 (published 2024).
One block for each binder: values may come before it.

Tests used:
[1] = molecular target: T1, mouse GP130 extracellular domain expressed with a C-terminal myc-myc-hexahistidine tag (mGP130-mmH) (mouse, UniProt Q00560 23-617); test: SPR Biacore, mAb captured via anti-hFc, 37 C
T1 construct: Monomeric; the entry includes the myc-myc-His tag
Description: (§1) Equilibrium dissociation constant (KD) for different GP130 reagents binding to purified anti-GP130 monoclonal antibodies were determined using a real-time surface plasmon resonance based Biacore 4000 biosensor. All binding studies were performed in 10 mM HEPES, 150 mM NaCl, 3 mM EDTA, and 0.05% v/v Surfactant Tween-20, pH 7.4 (HBS-ET) running buffer at 25° C. and 37° C. The Biacore sensor surface was first derivatized by amine coupling with a monoclonal mouse anti-human Fc antibody (GE, #BR-1008-39) to capture anti-GP130 monoclonal antibodies. […] Reagents tagged with “mmH” are monomeric, whereas reagents tagged with “mFc” are dimeric. Thus, for example, “hGP130-mmH” is also referred to as “monomeric human GP130,” and “hGP130-mFc” is also referred to as “dimeric human GP130.”
(§2) The association rate (k a) and dissociation rate (kd) were determined by fitting the real-time binding sensorgrams to a 1:1 binding model with mass transport limitation using Scrubber 2.0c curve-fitting software. Binding dissociation equilibrium constant (KD) and dissociative half-life (t ½) were calculated from the kinetic rates as: […]

[2] = molecular target: T2, rat GP130 extracellular domain expressed with a C-terminal myc-myc-hexahistidine tag (rGP130-mmH) (rat, UniProt P40190 23-618); test: SPR Biacore, mAb captured via anti-hFc, 37 C
T2 construct: Monomeric; the entry includes the myc-myc-His tag
T2 sequence (P40190 other isoform, or with tags, fused parts or gaps): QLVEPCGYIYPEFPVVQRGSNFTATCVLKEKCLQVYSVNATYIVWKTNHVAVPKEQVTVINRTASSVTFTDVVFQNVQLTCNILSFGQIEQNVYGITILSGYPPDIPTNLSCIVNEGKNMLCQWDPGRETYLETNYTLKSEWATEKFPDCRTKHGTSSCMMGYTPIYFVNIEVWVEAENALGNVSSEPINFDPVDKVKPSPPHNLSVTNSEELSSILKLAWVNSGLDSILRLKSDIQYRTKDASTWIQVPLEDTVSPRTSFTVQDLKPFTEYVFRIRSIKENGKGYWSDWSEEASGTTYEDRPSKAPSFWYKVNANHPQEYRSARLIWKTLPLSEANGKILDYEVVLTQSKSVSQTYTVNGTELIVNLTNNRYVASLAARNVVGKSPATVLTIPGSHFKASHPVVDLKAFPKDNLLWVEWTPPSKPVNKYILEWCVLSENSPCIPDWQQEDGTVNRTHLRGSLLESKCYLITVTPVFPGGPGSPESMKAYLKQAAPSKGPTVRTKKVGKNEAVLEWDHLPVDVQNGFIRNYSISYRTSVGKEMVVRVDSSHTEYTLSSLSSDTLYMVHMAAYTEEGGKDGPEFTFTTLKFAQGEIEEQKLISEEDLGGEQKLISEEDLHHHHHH
Description: as §1, §2

[3] = molecular target: T3, human GP130 extracellular domain expressed with a C-terminal mouse IgG2a Fc tag (hGP130-mFc) (human); test: SPR Biacore, mAb captured via anti-hFc, 37 C
T3 construct: also called dimeric human GP130
T3 chain: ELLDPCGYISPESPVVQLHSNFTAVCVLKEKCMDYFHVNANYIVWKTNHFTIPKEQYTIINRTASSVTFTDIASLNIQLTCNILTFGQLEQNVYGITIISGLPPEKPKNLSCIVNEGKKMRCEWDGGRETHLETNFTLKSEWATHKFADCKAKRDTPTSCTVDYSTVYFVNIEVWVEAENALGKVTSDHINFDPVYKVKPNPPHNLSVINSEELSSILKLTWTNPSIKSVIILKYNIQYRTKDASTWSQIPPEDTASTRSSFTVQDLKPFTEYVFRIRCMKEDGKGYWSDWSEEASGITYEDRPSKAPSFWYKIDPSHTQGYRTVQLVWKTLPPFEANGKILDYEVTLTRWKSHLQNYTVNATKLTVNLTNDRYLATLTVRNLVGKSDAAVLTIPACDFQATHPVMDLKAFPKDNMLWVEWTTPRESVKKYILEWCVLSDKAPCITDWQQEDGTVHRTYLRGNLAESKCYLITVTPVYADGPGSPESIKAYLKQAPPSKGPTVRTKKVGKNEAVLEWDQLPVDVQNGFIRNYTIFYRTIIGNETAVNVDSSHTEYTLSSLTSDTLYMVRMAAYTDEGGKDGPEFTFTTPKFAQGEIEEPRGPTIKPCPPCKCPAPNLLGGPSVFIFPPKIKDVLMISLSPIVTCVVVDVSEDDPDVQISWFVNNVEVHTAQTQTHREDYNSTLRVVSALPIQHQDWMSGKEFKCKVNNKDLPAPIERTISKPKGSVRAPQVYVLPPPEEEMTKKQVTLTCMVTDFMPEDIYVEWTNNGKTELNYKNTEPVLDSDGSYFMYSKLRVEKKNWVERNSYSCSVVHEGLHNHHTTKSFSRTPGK
Description: as §1, §2

[4] = molecular target: T1, mouse GP130 extracellular domain …; test: SPR Biacore, mAb captured via anti-hFc, 25 C
Description: as §1, §2

[5] = molecular target: T2, rat GP130 extracellular domain …; test: SPR Biacore, mAb captured via anti-hFc, 25 C
Description: as §1, §2

[6] = molecular target: T3, human GP130 extracellular domain …; test: SPR Biacore, mAb captured via anti-hFc, 25 C
Description: as §1, §2

[7] = molecular target: T4, human GP130 extracellular domain expressed with a C-terminal myc-myc-hexahistidine tag (human, UniProt P40189 23-619); test: SPR 25C, mAb captured, hGP130-MMH injected
T4 construct: monomeric; also called hGP130-mmH; hGP130-MMH
Description: as §1, §2

[8] = molecular target: T5, mouse GP130 extracellular domain expressed with a C-terminal myc-myc-hexahistidine tag (mouse, UniProt Q00560 23-617); test: SPR
T5 construct: monomeric; also called mGP130-mmH; mGP130-MMH
T5 sequence (Q00560 other isoform, or with tags, fused parts or gaps): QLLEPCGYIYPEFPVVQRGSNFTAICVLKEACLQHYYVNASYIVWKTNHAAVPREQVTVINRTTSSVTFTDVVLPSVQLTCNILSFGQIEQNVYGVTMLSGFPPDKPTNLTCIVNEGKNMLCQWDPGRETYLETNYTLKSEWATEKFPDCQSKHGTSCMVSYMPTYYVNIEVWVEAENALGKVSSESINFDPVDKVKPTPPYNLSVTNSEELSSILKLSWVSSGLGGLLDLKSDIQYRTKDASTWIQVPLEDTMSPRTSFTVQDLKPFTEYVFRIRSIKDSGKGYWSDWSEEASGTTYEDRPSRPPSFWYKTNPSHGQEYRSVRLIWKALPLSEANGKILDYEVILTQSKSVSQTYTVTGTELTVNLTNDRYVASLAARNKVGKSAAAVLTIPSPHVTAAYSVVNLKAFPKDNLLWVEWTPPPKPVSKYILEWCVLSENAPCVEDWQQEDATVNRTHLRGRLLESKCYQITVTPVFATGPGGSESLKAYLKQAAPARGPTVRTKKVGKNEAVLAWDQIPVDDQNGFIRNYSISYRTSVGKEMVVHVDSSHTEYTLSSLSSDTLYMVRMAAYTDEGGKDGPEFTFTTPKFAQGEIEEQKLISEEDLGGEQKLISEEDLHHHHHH
Description: as §1, §2

[9] = molecular target: T6, human GP130 delta D1-D3 expressed with a C-terminal myc-myc hexahistidine tag (human, UniProt P40189 329-619); test: Luminex, myc-captured antigen
T6 construct: CHO supernatant, captured on anti-myc microspheres; also called human GP130 delta D1-D3-MMH
T6 sequence (P40189 other isoform, or with tags, fused parts or gaps mutant limits assumed): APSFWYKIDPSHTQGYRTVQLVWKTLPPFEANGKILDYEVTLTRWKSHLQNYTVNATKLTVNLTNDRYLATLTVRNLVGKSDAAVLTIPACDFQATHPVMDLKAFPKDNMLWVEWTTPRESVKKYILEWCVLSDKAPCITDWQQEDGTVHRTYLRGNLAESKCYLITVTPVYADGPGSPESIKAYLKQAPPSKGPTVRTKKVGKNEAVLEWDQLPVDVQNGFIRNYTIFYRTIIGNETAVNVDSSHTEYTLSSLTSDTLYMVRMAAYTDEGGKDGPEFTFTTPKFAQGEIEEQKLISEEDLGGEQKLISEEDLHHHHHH
Description: Aliquots of microspheres with immobilized anti-myc monoclonal antibodies, prepared as described above, were added individually to 1 mL of the each of these protein supernatants and to 500 uL of purified GP130 protein. The microspheres were gently mixed, incubated for two hours at 25° C., washed twice with 1 mL of DBPS, centrifuged to remove the supernatant and finally resuspended in 1 mL of DPBS buffer. Forty eight μL of anti-myc IgG coupled microspheres from individual reactions with full length human GP130 and with each of the human GP130 domain proteins were withdrawn and mixed together in 3.6 mL of PBS+20 mg/mL BSA+0.05% sodium azide (blocking buffer).
From this mixed pool, 75 μL of microspheres were plated per well on a 96 well filter plate (Millipore, Cat. No: MSBVN1250) and mixed with 25 μL of individual anti-human GP130 monoclonal antibodies (0.5 or 5 μg/mL), incubated for two hours at 25° C. and then washed twice with 200 μL of DPBS with 0.05% Tween 20 (washing buffer). To detect and quantify the amounts of bound anti-GP130 antibody levels to individual microspheres, either 100 μL of 2.5 μg/mL R-Phycoerythrin conjugated goat F(ab′)2 anti-human kappa (Southern Biotech, Cat #2063-09) in blocking buffer, was added and incubated for 30 minutes at 25° C. After 30 minutes, the samples were washed twice with 200 μL of washing buffer and resuspended in 150 μL of wash buffer. The Median Fluorescence intensity (MFI) of the microspheres was measured in a Luminex Analyzer.

T1 sequence (Q00560 other isoform, or with tags, fused parts or gaps): as the sequence (Q00560 other isoform, or with tags, fused parts or gaps) above

B3: MAb16614 (antibody, V domains shown)
VH: QVQLVESGGGVVQPGGSLRLSCAASGFTFSTYDIHWVRQAPGKGLEWVAVISFDGSNRNYGDSVKGRFTISRDNSDNTLFLEMNNLRFEDTAVYYCAKEGYGVDFQHWGQGTLVTVSS
VL: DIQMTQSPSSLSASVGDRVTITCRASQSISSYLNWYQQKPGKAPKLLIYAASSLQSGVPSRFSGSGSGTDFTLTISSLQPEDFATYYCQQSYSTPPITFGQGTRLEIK
- binding result [9]: no binding (tested: 0.5 or 5 µg/mL)
- 100 nM Ag Bound (RU) [7]: 18 RU
- Kd [7]: 183 nM
- koff [7]: 0.0101 s⁻¹
- kon [7]: 55200 M⁻¹ s⁻¹
- t½ [7]: 1.1 min
- binding result [8]: no binding (tested: 100 nM)

B4: MAb16622 (antibody, V domains shown)
VH: EVQLVESGGGVVRPGGSLRLSCTASGFTFDDYGMSWVRQAPGKGLEWVSGINWNGGRTEYADAVKGRFIISRDNAKNSLYLQMNSLRAEDTALYFCARTELRWDYWGQGTLVTVSS
VL: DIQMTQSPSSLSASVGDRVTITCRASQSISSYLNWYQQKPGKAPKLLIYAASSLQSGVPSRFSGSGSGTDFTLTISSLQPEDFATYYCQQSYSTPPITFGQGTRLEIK
- binding result [9]: no binding (tested: 0.5 or 5 µg/mL)
- 100 nM Ag Bound (RU) [7]: 36 RU
- Kd [7]: 203 nM
- koff [7]: 0.0243 s⁻¹
- kon [7]: 120000 M⁻¹ s⁻¹
- t½ [7]: 0.5 min
- binding result [8]: no binding (tested: 100 nM)

B5: MAb16618 (antibody, V domains shown)
VH: QVQLQESGPGLVKPSETLSLTCTVSGGSISNYYWTWIRQPPGKGLEWIGHISNSGTTNYNPSLKSRVTISVDTSKNQFSLKLTSVTAADTAVYYCARLPLGIAAVDTDYYYYFGMDVWGQGTTVTVSS
VL: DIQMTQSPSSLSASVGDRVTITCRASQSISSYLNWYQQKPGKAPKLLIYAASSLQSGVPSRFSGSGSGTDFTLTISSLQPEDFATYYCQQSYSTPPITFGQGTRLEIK
- binding result [9]: no binding (tested: 0.5 or 5 µg/mL)
- 100 nM Ag Bound (RU) [7]: 52 RU
- Kd [7]: 120 nM
- koff [7]: 0.0425 s⁻¹
- kon [7]: 354000 M⁻¹ s⁻¹
- t½ [7]: 0.3 min
- binding result [8]: no binding (tested: 100 nM)

B7: MAb16680 (antibody, V domains shown)
VH: QVQLQQSGPGQMKSSQTLTLTCAISGDSVSSNSAIWYWIRQSPSRGLEWLGRTKFRSKWYNDFALSMKSRITINPDTSKNQFSLHLNSVTPEDTAVYYCARYKWELYFDYWGQGTLVTVSS
VL: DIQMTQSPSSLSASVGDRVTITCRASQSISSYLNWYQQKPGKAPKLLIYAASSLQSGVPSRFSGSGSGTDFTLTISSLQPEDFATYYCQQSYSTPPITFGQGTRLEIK
- binding result [8]: no binding (tested: 100 nM)

B8: MAb16669 (antibody, V domains shown)
VH: EVQLVESGGGLVQPGGSLRLSCAASGFTFSSYAMNWVRQAPGKGLEWVSAISGSGDSTYYTDSVKGRFTISRDNSKNTLYLQMNTLRAEDTAVYYCAKEEIVMLVGATPGWFDPWGQGTLVTVSS
VL: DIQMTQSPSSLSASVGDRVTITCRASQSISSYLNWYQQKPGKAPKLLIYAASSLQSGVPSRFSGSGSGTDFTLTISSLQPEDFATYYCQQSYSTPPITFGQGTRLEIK
- 100 nM Ag Bound (RU) [7]: 17 RU
- Kd [7]: 35.4 nM
- koff [7]: 0.000403 s⁻¹
- kon [7]: 11400 M⁻¹ s⁻¹
- t½ [7]: 29 min
- binding result [8]: no binding (tested: 100 nM)

B9: MAb16683 (antibody, V domains shown)
VH: QVQLVESGGGLVKPGGSLRLSCAASGFTFSDYYMTWIRQTPGKGLDWVSYISSSGTNKYNADSVKGRFTISRDNAKNSLYLQMNSLRAEDTAVYYCVRDPPWGMDVWGQGTTVTVSS
VL: not shown
- 100 nM Ag Bound (RU) [7]: 54 RU
- Kd [7]: 46.7 nM
- koff [7]: 0.00325 s⁻¹
- kon [7]: 69700 M⁻¹ s⁻¹
- t½ [7]: 4 min
- binding result [8]: no binding (tested: 100 nM)

Now from value to binder:

- 100 nM Ag Bound (RU) [1]: 0 RU
- binding result [1]: no binding (tested: 100 nM)
- 100 nM Ag Bound (RU) [2]: 0 RU
- 100 nM Ag Bound (RU) [3]: 140 RU
- Kd [3]: 0.0566 nM
- koff [3]: 9.45e-05 s⁻¹
- kon [3]: 1.67e+06 M⁻¹ s⁻¹
- t½ [3]: 122 min
- 100 nM Ag Bound (RU) [4]: 0 RU
- 100 nM Ag Bound (RU) [5]: 0 RU
- binding result [5]: no binding (tested: 100 nM)
- 100 nM Ag Bound (RU) [6]: 119 RU
- Kd [6]: 0.0836 nM
- koff [6]: 7.13e-05 s⁻¹
- kon [6]: 853000 M⁻¹ s⁻¹
- t½ [6]: 162 min
B1: MAb16676 (antibody, V domains shown)
VH: QVQLVQSGAEVMKPGASVKVSCRASGYTFSSYDINWVRQAPGQGLEWMGWISTATGNTNYPQKVQGRVTMTTDTSTNTAYMELRSLRSDDTAVYYCTREGNSKGWLDPWGQGTLVTVSS
VL: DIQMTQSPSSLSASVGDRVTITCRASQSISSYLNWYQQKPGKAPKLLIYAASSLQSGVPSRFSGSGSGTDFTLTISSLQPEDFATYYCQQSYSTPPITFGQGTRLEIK
notes: captured through anti-human Fc

- 100 nM Ag Bound (RU) [7]: 77 RU
- Kd [7]: 21 nM
- koff [7]: 0.00377 s⁻¹
- kon [7]: 180000 M⁻¹ s⁻¹
- t½ [7]: 3 min
- binding result [8]: no binding (tested: 100 nM)
B2: MAb16623 (antibody, V domains shown)
VH: EVQLVESGGGLVQPGGSLRLSCAASGLTFSSYEMNWVRQAPGKGLEWVSHISSAGSTKYYADSVKGRFTISRDNAKNSLFLQMNSLRAEDTAIYYCAGYNYAYYYFGVDVWGQGTTVTVSS
VL: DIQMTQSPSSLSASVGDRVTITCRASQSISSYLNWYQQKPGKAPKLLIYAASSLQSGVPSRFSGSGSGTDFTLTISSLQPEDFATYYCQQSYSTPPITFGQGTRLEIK

- 100 nM Ag Bound (RU) [1]: 0 RU
- binding result [1]: no binding (tested: 100 nM)
- 100 nM Ag Bound (RU) [2]: 1 RU
- 100 nM Ag Bound (RU) [3]: 130 RU
- Kd [3]: 8.33 nM
- koff [3]: 0.00196 s⁻¹
- kon [3]: 236000 M⁻¹ s⁻¹
- t½ [3]: 6 min
- 100 nM Ag Bound (RU) [4]: 1 RU
- 100 nM Ag Bound (RU) [5]: 0 RU
- binding result [5]: no binding (tested: 100 nM)
- 100 nM Ag Bound (RU) [6]: 126 RU
- Kd [6]: 2.1 nM
- koff [6]: 0.000361 s⁻¹
- kon [6]: 172000 M⁻¹ s⁻¹
- t½ [6]: 32 min
B6: MAb16682 (antibody, V domains shown)
VH: EVQLVESGGGLVQPGGSLRLSCAASGFTFSTYWMNWVRQAPGKGLEWVANIKEDGSEKYYVDSVKGRFTISRDNAKNSLYLQMNSLRAEDTAVYYCAREGFGVVTYIWGQGTMVTVSS
VL: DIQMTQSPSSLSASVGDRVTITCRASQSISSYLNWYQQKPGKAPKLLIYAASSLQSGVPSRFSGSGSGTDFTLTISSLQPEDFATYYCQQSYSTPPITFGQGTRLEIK
notes: as for B1

- 100 nM Ag Bound (RU) [1]: 0 RU
- binding result [1]: no binding (tested: 100 nM)
- 100 nM Ag Bound (RU) [2]: 0 RU
- 100 nM Ag Bound (RU) [3]: 111 RU
- Kd [3]: 5.8 nM
- koff [3]: 0.00114 s⁻¹
- kon [3]: 196000 M⁻¹ s⁻¹
- t½ [3]: 10 min
- 100 nM Ag Bound (RU) [4]: 0 RU
- 100 nM Ag Bound (RU) [5]: 0 RU
- binding result [5]: no binding (tested: 100 nM)
- 100 nM Ag Bound (RU) [6]: 107 RU
- Kd [6]: 1.86 nM
- koff [6]: 0.000311 s⁻¹
- kon [6]: 167000 M⁻¹ s⁻¹
- t½ [6]: 37 min
B10: MAb16683 (antibody, V domains shown)
VH: B9 VH
VL: not shown
notes: as for B1
